Consider four molecules from publication PMC2396407.

For data set [1], the target named is T1, p53 (UniProt P04637 1-393). In words: EMSA.
In data set [2] the target is T2, TAp63γ (UniProt Q9H3D4-5 40-487).
T2 sequence: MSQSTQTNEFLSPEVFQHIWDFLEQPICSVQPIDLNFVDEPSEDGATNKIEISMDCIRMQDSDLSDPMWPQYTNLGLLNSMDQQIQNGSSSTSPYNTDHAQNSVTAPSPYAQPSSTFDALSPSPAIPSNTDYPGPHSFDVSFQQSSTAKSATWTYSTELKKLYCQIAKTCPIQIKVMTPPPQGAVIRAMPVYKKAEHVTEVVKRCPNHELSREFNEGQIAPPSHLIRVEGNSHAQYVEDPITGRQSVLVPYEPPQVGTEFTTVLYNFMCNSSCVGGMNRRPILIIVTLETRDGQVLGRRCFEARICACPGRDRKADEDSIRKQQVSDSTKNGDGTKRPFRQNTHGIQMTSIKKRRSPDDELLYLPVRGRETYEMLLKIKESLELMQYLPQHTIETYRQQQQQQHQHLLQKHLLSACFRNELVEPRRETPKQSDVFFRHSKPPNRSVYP
In words: EMSA.

For data set [3], the target named is T1, p53. Briefly: EMSA, supershift.
The target of data set [4] is T2, TAp63γ. Briefly: EMSA, supershift.
Data set [5] concerns the target T1, p53. Briefly: competition.
In data set [6] the target is T2, TAp63γ. Briefly: competition.
Data set [7] deals with T1, p53. Briefly: competition. The source holds these as a separate data set.
The target of data set [8] is T2, TAp63γ. In words: competition. The source holds these as a separate data set.

T1 sequence (P04637 whole entry): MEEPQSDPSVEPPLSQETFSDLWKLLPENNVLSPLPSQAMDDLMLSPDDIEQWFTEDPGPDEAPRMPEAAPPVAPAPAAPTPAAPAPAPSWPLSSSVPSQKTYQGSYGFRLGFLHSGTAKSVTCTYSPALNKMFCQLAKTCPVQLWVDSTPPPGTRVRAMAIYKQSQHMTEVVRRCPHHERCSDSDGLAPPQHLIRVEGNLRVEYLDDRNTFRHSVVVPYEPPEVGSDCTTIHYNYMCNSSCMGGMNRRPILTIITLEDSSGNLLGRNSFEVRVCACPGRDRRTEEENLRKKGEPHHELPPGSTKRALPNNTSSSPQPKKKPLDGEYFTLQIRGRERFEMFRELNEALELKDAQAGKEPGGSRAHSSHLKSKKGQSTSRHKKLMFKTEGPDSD

B1: mdm2 p53 site (dsDNA)
DNA 1: GGGCGGCCGCTGGTCAAGTTGGGACACGTCCGG
DNA 2: CCGGACGTGTCCCAACTTGACCAGCGGCCGCCC
As for B1, the binding result with p53 [1] and in the data set with TAp63γ [2] was “binds” in each case.

B2: p21 (p21WAF1/CIP1 p53 site) (dsDNA)
DNA 1: GGCCATCAGGAACATGTCCCAACATGTTGAGCTCT
DNA 2: AGAGCTCAACATGTTGGGACATGTTCCTGATGGCC
As to B2, the binding result with p53 [3] and in the data set with TAp63γ [4] was “binds” in each case.

B3: S100A2 site 2 mut-2 (dsDNA)
DNA 1: GGGTGGGATCATGTTGAGGCATGTTTGGTTTCCTT
DNA 2: AAGGAAACCAAACATGCCTCAACATGATCCCACCC
Regarding B3, the binding result with p53 [5] and with TAp63γ [6] was “binds” throughout.

B4: S100A2 site 2 mut-1 (dsDNA)
DNA 1: GGGTGGGATTGGATTGAGGTGGATTTGGTTTCCTT
DNA 2: AAGGAAACCAAATCCACCTCAATCCAATCCCACCC
For the molecule B4, the binding result in the data set with p53 [7] and with TAp63γ [8] was “no binding” in each case.
